Test [1] concerns the target T1, Terbium (Tb) labeled-SNAP tagged ROBO2 expressed on HEK293 cells (Homo sapiens (Human), UniProt Q9HCK4 22-1378, terbium label on the SNAP tag).
T1 construct: also called Tb-labeled ROBO2 cells; ROBO2 expressing cells; not shown: SNAP tag
T1 sequence: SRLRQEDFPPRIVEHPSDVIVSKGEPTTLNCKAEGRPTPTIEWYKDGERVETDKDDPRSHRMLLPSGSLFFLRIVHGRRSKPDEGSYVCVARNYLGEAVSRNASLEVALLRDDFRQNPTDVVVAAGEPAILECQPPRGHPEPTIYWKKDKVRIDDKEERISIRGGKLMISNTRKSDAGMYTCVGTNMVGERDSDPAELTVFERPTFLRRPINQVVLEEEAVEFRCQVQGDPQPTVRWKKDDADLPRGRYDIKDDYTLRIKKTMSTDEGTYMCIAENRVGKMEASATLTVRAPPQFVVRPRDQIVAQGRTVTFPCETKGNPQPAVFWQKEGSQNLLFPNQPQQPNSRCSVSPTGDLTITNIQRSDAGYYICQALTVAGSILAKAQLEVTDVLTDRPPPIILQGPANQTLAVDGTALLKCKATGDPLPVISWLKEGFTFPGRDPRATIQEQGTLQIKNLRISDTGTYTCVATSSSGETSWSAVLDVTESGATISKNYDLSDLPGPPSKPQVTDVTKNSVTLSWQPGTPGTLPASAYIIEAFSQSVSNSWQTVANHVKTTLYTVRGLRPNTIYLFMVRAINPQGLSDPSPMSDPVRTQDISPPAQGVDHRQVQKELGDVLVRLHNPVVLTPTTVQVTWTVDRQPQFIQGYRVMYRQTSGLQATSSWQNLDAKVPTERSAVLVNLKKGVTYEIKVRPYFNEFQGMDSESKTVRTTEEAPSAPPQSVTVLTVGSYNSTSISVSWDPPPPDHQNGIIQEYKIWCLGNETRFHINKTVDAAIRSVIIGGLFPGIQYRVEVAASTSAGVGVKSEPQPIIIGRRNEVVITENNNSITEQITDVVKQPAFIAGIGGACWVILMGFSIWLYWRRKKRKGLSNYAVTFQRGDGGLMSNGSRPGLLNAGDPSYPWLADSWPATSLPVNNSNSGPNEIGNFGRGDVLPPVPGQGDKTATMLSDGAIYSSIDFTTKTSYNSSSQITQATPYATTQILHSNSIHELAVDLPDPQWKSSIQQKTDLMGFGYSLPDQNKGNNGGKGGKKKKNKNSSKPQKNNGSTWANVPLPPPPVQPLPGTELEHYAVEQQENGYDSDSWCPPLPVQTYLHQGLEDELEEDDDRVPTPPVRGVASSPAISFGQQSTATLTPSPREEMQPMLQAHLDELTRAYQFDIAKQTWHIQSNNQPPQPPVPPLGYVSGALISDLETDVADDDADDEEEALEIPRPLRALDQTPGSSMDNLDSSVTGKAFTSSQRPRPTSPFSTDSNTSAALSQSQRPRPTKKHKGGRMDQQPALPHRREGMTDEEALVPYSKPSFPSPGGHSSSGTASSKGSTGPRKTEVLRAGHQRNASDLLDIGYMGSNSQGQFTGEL
Kind of test: HTRF competition, competitor d2-SLIT2-N, ROBO2 HEK293 cells. Here is the method: A ROBO2-SLIT2-N homogenous time resolved fluorescence (HTRF) assay was used to identify antibodies that were capable of blocking SLIT2-N binding to ROBO2. In this assay, terbium (Tb) labeled-SNAP tagged ROBO2 expressing HEK293 cells were incubated with 5 nM d2-labeled SLIT-2N in the presence of 1 nM anti-ROBO2 antibodies for 1 hour. After incubation, fluorescence at 665 nm and 620 nm was measured on an Envision multilabel plate reader. […] Maximal signal was defined as the HTRF ratio of Tb-labeled ROBO2 cells with d2-labeled SLIT2-N in the absence of antibody, the minimum signal was defined as the HTRF ratio of Tb-labeled ROBO2 expressing HEK293 cells only. One nanomolar (nM) parental antibody, 93H2, was unable to block the HTRF assay, therefore this concentration was selected to identify clones with a higher affinity than 93H2 (Table 2, HTRF Ratio column). […] Antibodies derived from chain (Abcs series) or CDR shuffling (CTIR-2 series) were evaluated in 11-point, 5-fold dilution series with a top concentration of 1500 nM (Table 2 HTRF IC₅₀).
Neutralization of SLIT2-N binding to ROBO2 was assessed ROBO2:SLIT2-N homogenous time resolved fluorescence (HTRF) assay as described in Example 2. Briefly the HTRF assay was performed as follows: terbium (Tb) labeled-SNAP tagged ROBO2 expressing HEK293 cells were incubated with d2-labeled SLIT-2N in the presence of anti-ROBO2 antibodies for 1 hour. After incubation, fluorescence at 665 nm and 620 nm was measured on an Envision multi-label plate reader. […] Maximal signal was defined as the HTRF ratio of Tb-labeled ROBO2 cells with d2-labeled SLIT2-N in the absence of antibody, the minimum signal was defined as the HTRF ratio of Tb-labeled ROBO2 expressing HEK293 cells only.
A general note: TR-FRET usually uses a lanthanide donor and a delayed reading to cut background.

Test [2] deals with T2, Human ROBO2 overexpressed on HEK293 cells (human, UniProt Q9HCK4 22-1378).
T2 construct: also called ROBO2 cells; native ROBO2
T2 sequence: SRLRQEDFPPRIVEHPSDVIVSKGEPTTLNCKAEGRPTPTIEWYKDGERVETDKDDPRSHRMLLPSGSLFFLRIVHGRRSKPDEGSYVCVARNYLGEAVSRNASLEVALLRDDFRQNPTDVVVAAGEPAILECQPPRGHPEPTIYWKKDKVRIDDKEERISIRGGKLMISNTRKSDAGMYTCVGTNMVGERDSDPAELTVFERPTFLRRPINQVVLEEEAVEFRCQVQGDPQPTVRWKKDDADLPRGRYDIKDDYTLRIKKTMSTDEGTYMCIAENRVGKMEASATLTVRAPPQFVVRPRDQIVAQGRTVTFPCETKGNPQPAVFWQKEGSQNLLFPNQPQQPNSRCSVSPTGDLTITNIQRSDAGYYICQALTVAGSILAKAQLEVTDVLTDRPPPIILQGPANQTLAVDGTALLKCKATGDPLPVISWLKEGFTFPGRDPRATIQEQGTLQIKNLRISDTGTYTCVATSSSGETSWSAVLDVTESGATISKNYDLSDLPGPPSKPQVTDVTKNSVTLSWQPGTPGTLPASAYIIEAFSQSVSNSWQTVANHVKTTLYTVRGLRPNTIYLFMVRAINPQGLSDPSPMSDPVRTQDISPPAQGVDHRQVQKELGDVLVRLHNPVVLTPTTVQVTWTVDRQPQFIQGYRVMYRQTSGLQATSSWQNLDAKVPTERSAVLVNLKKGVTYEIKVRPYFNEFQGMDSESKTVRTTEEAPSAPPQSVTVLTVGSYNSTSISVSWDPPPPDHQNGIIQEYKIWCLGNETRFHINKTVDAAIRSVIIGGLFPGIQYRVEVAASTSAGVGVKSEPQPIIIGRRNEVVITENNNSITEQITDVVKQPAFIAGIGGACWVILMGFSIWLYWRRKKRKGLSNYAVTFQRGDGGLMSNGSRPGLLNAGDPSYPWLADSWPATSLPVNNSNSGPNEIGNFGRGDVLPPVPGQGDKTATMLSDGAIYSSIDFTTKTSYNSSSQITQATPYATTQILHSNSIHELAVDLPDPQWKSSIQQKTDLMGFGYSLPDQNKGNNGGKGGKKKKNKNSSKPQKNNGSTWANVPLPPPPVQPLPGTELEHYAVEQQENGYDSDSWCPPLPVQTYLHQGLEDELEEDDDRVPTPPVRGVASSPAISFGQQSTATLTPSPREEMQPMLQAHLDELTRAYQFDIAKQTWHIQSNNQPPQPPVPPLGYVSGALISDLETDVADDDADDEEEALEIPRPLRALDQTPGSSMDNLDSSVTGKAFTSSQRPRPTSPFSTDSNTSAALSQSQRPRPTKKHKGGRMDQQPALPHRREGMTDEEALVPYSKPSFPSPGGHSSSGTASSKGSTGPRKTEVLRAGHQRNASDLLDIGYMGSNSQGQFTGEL
Description: flow cytometry, HEK293 cells. As for the experimental part: Using flow cytometry, improvement in the binding EC₅₀ to human ROBO2 relative to the parental 93H2 was evaluated. Starting at 6.7 nM, 11-point, 3-fold dilution series were made for each antibody and used to stain HEK293 overexpressing human ROBO2 as described above for the ROBO2 fold selectivity (Example 2). […] In addition to measuring improved binding to human ROBO2, it was important to ensure that high affinity binding to both cynomolgus monkey ROBO2 and rat ROBO2 was maintained. Using HEK293 cells overexpressing either cynomolgus monkey ROBO2 or rat ROBO2, the relative dose-dependent binding of 93H2, Abcs25 and Abcs35 was evaluated as described above. High affinity binding to both cynomolgus monkey and rat ROBO2 was maintained in Abcs25 and Abcs35 (Table 4). […] Briefly, Abcs35 was immobilized to 300 resonance units (RU) on a CM5 chip. Association of ROBO2 Ig1-Ig2-His (ROBO2) was measured over 5 minutes and dissociation was followed for a period of 10 minutes.
The binding profile of Abcs35-J compared to Abcs35 was determined for human ROBO2, orthologs from cynomolgus monkey and rat, human ROBO1 and specificity for the RSK epitope from ROBO2 but not KSR from ROBO1. Binding was assessed by flow cytometry as described in Examples 2 (homolog specificity), Example 3 (ortholog reactivity) and Example 5 (RSK vs KSR epitope specificity). […] Binding of the antibodies was detected using a secondary fluorochrome conjugated anti-human IgG F(ab′)₂ antibody and samples analyzed on a Fortessa cytometer (BD Biosciences).
A general note: A flow cytometer gives signals particle by particle.

B1: Abcs35 (antibody, human IgG1, kappa)
heavy: EVQLVQSGAEVKKPGASVKVSCKASGYTFTGYYMHWVRQAPGQGLEWMGWINPKNGDTEFPQKFQGRVTMTRDTSITTAYMDLSRLRSDDTAVYYCARESGDDAFDIWGQGTMVTVSSASTKGPSVFPLAPSSKSTSGGTAALGCLVKDYFPEPVTVSWNSGALTSGVHTFPAVLQSSGLYSLSSVVTVPSSSLGTQTYICNVNHKPSNTKVDKKVEPKSCDKTHTCPPCPAPEAAGAPSVFLFPPKPKDTLMISRTPEVTCVVVDVSHEDPEVKFNWYVDGVEVHNAKTKPREEQYNSTYRVVSVLTVLHQDWLNGKEYKCKVSNKALPAPIEKTISKAKGQPREPQVYTLPPSREEMTKNQVSLTCLVKGFYPSDIAVEWESNGQPENNYKTTPPVLDSDGSFFLYSKLTVDKSRWQQGNVFSCSVMHEALHNHYTQKSLSLSPGK
light: DIVMTQSPSSLSASVGDRVTITCRASQSISSYLNWYQQKPGKAPKLLIYAASSLQSGVPSRFSGSGSGTDFTLTISSLQPEDFATYYCQQSVGLFFGGGTKVEIKRTVAAPSVFIFPPSDEQLKSGTASVVCLLNNFYPREAKVQWKVDNALQSGNSQESVTEQDSKDSTYSLSSTLTLSKADYEKHKVYACEVTHQGLSSPVTKSFNRGEC
notes: fully human IgG1; VH of Ab96 with VL of Ab123
In general, IC50 refers to the concentration needed to halve the response being measured. A low value points to greater potency. For orientation: EC50 means the concentration that produces a half-maximal response. Low readings indicate a more potent agent, high ones a less potent agent. In the case of B1, the IC50 in test [1] was determined as 76.1 pM. In addition, a half-maximal response in test [2] (EC50) required 89 pM.

B2: Abcs35-J (antibody, human IgG1, kappa)
heavy: EVQLVQSGAEVKKPGASVKVSCKASGYTFTGYYMHWVRQAPGQGLEWMGWINPKNGDTEFPQKFQGRVTMTRDTSITTAYMELSRLRSDDTAVYYCARESGDDAFDIWGQGTMVTVSSASTKGPSVFPLAPSSKSTSGGTAALGCLVKDYFPEPVTVSWNSGALTSGVHTFPAVLQSSGLYSLSSVVTVPSSSLGTQTYICNVNHKPSNTKVDKKVEPKSCDKTHTCPPCPAPEAAGAPSVFLFPPKPKDTLMISRTPEVTCVVVDVSHEDPEVKFNWYVDGVEVHNAKTKPREEQYNSTYRVVSVLTVLHQDWLNGKEYKCKVSNKALPAPIEKTISKAKGQPREPQVYTLPPSREEMTKNQVSLTCLVKGFYPSDIAVEWESNGQPENNYKTTPPVLDSDGSFFLYSKLTVDKSRWQQGNVFSCSVMHEALHNHYTQKSLSLSPGK
light: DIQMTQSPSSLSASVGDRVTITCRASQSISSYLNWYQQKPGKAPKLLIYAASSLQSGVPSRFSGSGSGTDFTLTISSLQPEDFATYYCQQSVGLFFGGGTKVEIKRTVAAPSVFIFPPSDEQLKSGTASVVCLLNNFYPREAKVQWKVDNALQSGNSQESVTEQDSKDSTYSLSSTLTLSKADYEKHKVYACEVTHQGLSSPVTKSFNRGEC
notes: germlined variant of Abcs35; also called ABCS-J
B2: the IC50 in test [1] worked out at 74.4 pM. In test [2], this molecule returned an EC50 of 102 pM.

The values above are taken from patent US20200157212A1 (Pfizer, published 2020).
